Data on three molecules can be found in patent publication US20230374090A1 (SURROZEN OPERATING, published 2023).

One assay deals with T1, human ASGR1 (human, UniProt P07306 62-291, limits assumed).
T1 construct: also called asialoglycoprotein receptor 1; hASGR1
T1 sequence (looked up): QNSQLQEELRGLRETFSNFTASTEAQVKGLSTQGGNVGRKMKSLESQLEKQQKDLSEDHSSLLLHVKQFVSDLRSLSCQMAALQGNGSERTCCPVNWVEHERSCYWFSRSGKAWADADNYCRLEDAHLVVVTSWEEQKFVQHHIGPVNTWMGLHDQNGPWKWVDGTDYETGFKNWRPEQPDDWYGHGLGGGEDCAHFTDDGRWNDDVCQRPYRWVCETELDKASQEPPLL
The assay can be described thus: kinetic binding to human ASGR1, IgG1 format; method and unit inferred.

Assay [1] deals with T2, HuASGR1-CBD_P07306_154-291 (human).
T2 construct: also called human ASGR1-CBD
T2 chain: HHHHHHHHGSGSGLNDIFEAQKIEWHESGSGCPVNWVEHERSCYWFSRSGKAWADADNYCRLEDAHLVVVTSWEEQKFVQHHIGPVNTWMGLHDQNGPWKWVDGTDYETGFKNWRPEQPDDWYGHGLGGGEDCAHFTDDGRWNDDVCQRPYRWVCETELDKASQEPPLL
The assay can be described thus: size-exclusion chromatography of the mixed proteins (1.1:1 molar ratio). The method, then:
Purified […] and 8M24 Fab were mixed at 1.1:1 molar ratio (little excess of the HuASGR1-CBD), and incubated with carboxy-peptidase A and B at a w/w ratio of 100:1 for over-night at 4° C. Complex formation was confirmed by observation of a single-major peak on SuperdexS200 Increase (10/300 GL) column pre-equilibrated in HBS. Fractions containing complexes were further checked by SDS-PAGE and concentrated to ˜20 mg/mL for crystallization screens. […] 96-well plate crystal screening experiments were periodically monitored manually via a DiscoveryV20 stereomicroscope (Zeiss USA), and crystals were frozen for data collection by plunging into liquid nitrogen in the presence of various cryo-protectants (typically 15 to 30% v/v of glycerol or ethyleneglycol). […] Structure of HuASGR1-CBD:8M24 complex was determined by molecular replacement method using Phaser [Phaser crystallographic software. McCoy A J, Grosse-Kunstleve R W, Adams P D, Winn M D, Storoni L C, and Read R J. (2007) J Appl Crystallogr 40, 658-674] with poly-alanine model of published structure of ASGR1-CBD [PDB code: SJPV; Efficient Liver Targeting by Polyvalent Display of a Compact Ligand for the Asialoglycoprotein Receptor. […]
On the technique in general: Size exclusion chromatography separates by hydrodynamic size, large species first.

As usually defined, the Kd is a measure of binding affinity in units of concentration. Lower therefore signals higher affinity.

B1: 8M24 humanized L1H1 (antibody, V domains shown)
VH: EVQLVQSGAEVKKPGSSVKVSCKASGYTFTNYGINWVRQAPGQGLEWMGEIFPRSDNTFYAQKFQGRVTITADKSTSTAYMELSSLRSEDTAVYYCARKGRDYGTSHYFDYWGQGTTVTVSS
VL: DIQMTQSPSSLSASVGDRVTITCRISENIYSNLAWYQQKPGKAPKLLIYAAINLADGVPSRFSGSGSGTDFTLTISSLQPEDFATYYCQHFWGTPFTFGQGTKLEIK
notes: also called 8M24 humanized 1
B1 had a Kd in the assay with human ASGR1 of 0.00573 nM.

B2: 8M24 Fab (L1H1 version) (Fab, V domains shown)
VH: EVQLVQSGAEVKKPGSSVKVSCKASGYTFTNYGINWVRQAPGQGLEWMGEIFPRSDNTFYAQKFQGRVTITADKSTSTAYMELSSLRSEDTAVYYCARKGRDYGTSHYFDYWGQGTTVTVSS
VL: DIQMTQSPSSLSASVGDRVTITCRISENIYSNLAWYQQKPGKAPKLLIYAAINLADGVPSRFSGSGSGTDFTLTISSLQPEDFATYYCQHFWGTPFTFGQGTKLEIKR
notes: Heavy chain entry includes a C-terminal hexa-histidine tag; also called 8M24L1 Light-chain + 8M24H1 Heavy-chain; SZP19057+19056
For the molecule B2, the binding result in assay [1] was “binds”.

B3: 8M24 humanized L2H2 (antibody, V domains shown)
VH: EVQLVQSGAEVKKPGSSVKVSCKASGYTFTNYGINWVRQAPGQGLEWIGEIFPRSDNTFYAQKFQGRATLTADKSTSTAYMELSSLRSEDTAVYYCARKGRDYGTSHYFDYWGQGTTLTVSS
VL: DIQMTQSPSSLSASVGDRVTITCRISENIYSNLAWYQQKPGKAPKLLVYAAINLADGVPSRFSGSGSGTDFTLTISSLQPEDFGTYYCQHFWGTPFTFGQGTKLEIK
notes: also called 8M24 humanized 2
In turn, B3 displayed a Kd with human ASGR1 of 0.11 nM.
